This note sets out measurements from article PMC4754655 (Scientific Reports, 2016).

Changes are numbered by the printed parent chain.

Holding throughout (settings): both partners purified
Assay [1] concerns the target T1, YU2 gp120, soluble monomer (HIV-1 isolate YU2 (clade B), UniProt P35961). In words: ELISA; Env glycoprotein coated at 2 ug/ml in PBS pH 7.4 overnight at 4 C; IgG 5-fold serially diluted, 1 hour at RT; HRP goat anti-human IgG (H+L). On the technique in general: An ELISA detects its analyte on a solid surface through an enzyme-linked reagent.
Assay [2] has as its target T2, JRFL gp140-F trimer (HIV-1 isolate JRFL (clade B), UniProt Q75760, stabilised).
T2 construct: also called JRFL foldon trimers; source: 293 F cells
Described as above.

Assay [3] has as its target T3, YU2 gp140-foldon trimer (HIV-1 isolate YU2 (clade B), UniProt P35961, stabilised).
T3 construct: also called eliciting gp140-F immunogen; gp140 trimers; source: 293 F cells; not shown: His tag, C-terminal, kept
Described as above.

Assay [4] has as its target T1, YU2 gp120, soluble monomer. In words: BLI. (In BLI a coated tip is dipped into the sample, and binding shifts an interference pattern.)

B1: GEBT391, mature IgG (antibody, V domains shown)
VH: QVQLVESGGGLVQPGGSLRLSCAASGFTFSSYGMHWVRQAPGKGLEWVAVIWFDGSEKYYVDSVKDRFTISRDNSKNMLYLQMNNLKLDDTAVYYCARRGCTGSGCYLYYYALDSWGQGVVVTVSS
VL: DIQMTQSPSSLSASVGDTVTITCRASQGISSYLNWFQQKPGKAPKLLIYAATTLQSGVPSRFSGSGSGTDFTLTISSLQPEDFATYYCLQHNFYPYSFGQGTKVEIK
For B1, the binding result in assay [1], in assay [2] and in assay [3] was “binds” each time.

B2: GEBT391, inferred germline (igL) reverted IgG (antibody, V domains shown)
VH: B1 VH with Q1E, F53Y, E57K, V61A, D89E
VL: B1 VL with T52S, T53S, Q55E, D70E
notes: also called igL GEBT391; gL-reverted GEBT391
For the molecule B2, the binding result in assay [4], in assay [2] and in assay [3] was “binds” in each case.

B3: GEBT412, mature IgG (antibody, V domains shown)
VH: B1 VH with S21A, T28I, S31N, Y32H, F53Y, V61A, D89V, A112G
VL: B1 VL with Y32H
As for B3, the binding result in assay [1], in assay [2] and in assay [3] was “binds” throughout.

B4: GEBT412, inferred germline (igL) reverted IgG (antibody, V domains shown)
VH: B1 VH with F53Y, E57K, V61A, D89E, A112G
VL: B1 VL with T52S, T53S, Q55E, D70E
notes: also called igL GEBT412
As for B4, the binding result in assay [4] and in assay [2] was “binds” each time.

B5: GEBT404, mature IgG (antibody, V domains shown)
VH: EVQLVESGGGLAKPGGSLRLSCAASGFTFSNYWMYWVRQAPGKGLEWISAINSAGSRTYYPDSVKGRFTISRENAKNTLYLQMDSLRAEDTAVYYCAKGRIAIFGLVITYFDYWGQGVLVTVSS
VL: DIQMTQSPSSLSASVGDRVTITCRASQGITNDLAWYQQKPGETPKLLIYDASSLQSGIPSRFSGSGSGTDFTLTISSLQPEDFATYYCQHYYSTPPTFGGGTKVEIK
On to B5, for which the binding result in assay [1], in assay [2] and in assay [3] was “binds” in each case.

B6: GEBT404, inferred germline (igL) reverted IgG (antibody, V domains shown)
VH: B5 VH with Y35H, R57S, P61A, S85G
VL: B5 VL with R24Q, D50E, P80S
notes: also called igL GEBT404; gL-reverted GEBT404
For B6, the binding result in assay [2] is listed as “binds”.

B7: GEBT403, mature IgG (antibody, V domains shown)
VH: EVQLVQSGAEVKKPGSSVKVSCKASGYTFTDYYMHWVRQAPGQGLEWMGEINPKTGGTNYAQKFQGRVTMTRDTSTSTAYMELSSLRSEDTAIYSCARGGQRLIPLRRFYFYYWGQGVLVTVSS
VL: QSVLTQPPSVSGAPGQKVTISCTGSSSNIGGYDVHWYQQLPGMAPKLLIYDNNERPSGISDRFSGSKSGTSASLAITGLQTEDEADYYCQSYDSSMNAWVFGGGTRLTVL
notes: also called mature GEBT403
On to B7, for which the binding result in assay [1], in assay [2] and in assay [3] was “binds” in each case.

B8: GEBT383, mature IgG (antibody, V domains shown)
VH: QVQLQESGPAVVKPSETLSLTCAVSGGSISSSNWWSWIRQSPGKGLEWIGGVYGSSGSTEYNPSLKSRVTISIDTSKNQFSLKLSSVTAADTAVYYCVRHCTWYNNIWNGYYNGFDYWGQGVLVTVSS
VL: QSALTQPPSVSGAPGQRVTISCTGSSSNIGGYYVSWYQQLPGTVPKLLIYENKKRPSGVSDRFSGSKSGTSASLTITGLQPGDEADYYCSAWDNSLSSHVFGSGTKLTVL
notes: also called non-CD4bs-directed mAb
As to B8, the binding result in assay [3] is “binds”.

B9: GEBT414, mature IgG (antibody, V domains shown)
VH: EVQLVQSGAEVKRPGESLRISCKTSGYSFTGSWISWVRQMPGKGLDWMGNIYPGDSDTRYNPSFQGHVTISADKSISTTYLQWSSLKASDTATYYCAKGGGITIFGLLHYPLDSWGQGVVVTVSS
VL: DIQMTQSPSSLSASVGDTVTITCRASQGINNWLAWYQQKPGKAPKLLIYKASSLQSGVPSRFSGSGSGTDFTLTISSLQSEDFATYYCQQYNSGPLTFGGGTKVEIK
For B9, the binding result in assay [1], in assay [2] and in assay [3] was “binds” throughout.
